B1: ALNLSRLTV (peptide)
peptide: ALNLSRLTV
B2: KLPFFTNFL (peptide)
peptide: KLPFFTNFL
B3: FALGPIIKQL (peptide)
peptide: FALGPIIKQL
B4: LLDSWNILI (peptide)
peptide: LLDSWNILI
B5: ITPDSIPSV (peptide)
peptide: ITPDSIPSV
B6: HLFSVLSAI (peptide)
peptide: HLFSVLSAI
B7: YMLEMDNSMKI (peptide)
peptide: YMLEMDNSMKI
B8: GLLGTLRVL (peptide)
peptide: GLLGTLRVL
B9: IWRALGSLF (peptide)
peptide: IWRALGSLF
B10: TYLESSVRI (peptide)
peptide: TYLESSVRI
B11: LYDTVTHTF (peptide)
peptide: LYDTVTHTF
B12: NFHTLAQQLLF (peptide)
peptide: NFHTLAQQLLF
B13: SHSSPTVSF (peptide)
peptide: SHSSPTVSF
B14: KFPPSASEF (peptide)
peptide: KFPPSASEF
B15: FQLSGPVTF (peptide)
peptide: FQLSGPVTF
B16: VFVISGSHLF (peptide)
peptide: VFVISGSHLF
B17: SQIKSPVVF (peptide)
peptide: SQIKSPVVF
B18: LWALAIPSL (peptide)
peptide: LWALAIPSL
B19: LYLETRSEF (peptide)
peptide: LYLETRSEF
B20: QYLTYYPSF (peptide)
peptide: QYLTYYPSF
B21: IYLTKSNLVNM (peptide)
peptide: IYLTKSNLVNM
B22: ILAPPQRISF (peptide)
peptide: ILAPPQRISF
B23: EYLGSENVF (peptide)
peptide: EYLGSENVF
B24: IFTGRNAYF (peptide)
peptide: IFTGRNAYF
B25: SYLKDHLSL (peptide)
peptide: SYLKDHLSL
B26: LWEEKPVCL (peptide)
peptide: LWEEKPVCL
B27: FYNPRPPLI (peptide)
peptide: FYNPRPPLI

The first assay concerns the target T1, HLA-A*02:01 (human).
T1 construct: Peptide-receptive MHC class I monomer in the UV-ligand exchange assay
Put plainly: UV peptide exchange, anti-b2m ELISA; exchange yield grade. From the text:
Candidate peptides for T cell based therapies according to the present invention were further tested for their MHC binding capacity (affinity). The individual peptide-MHC complexes were produced by UV-ligand exchange, where a UV-sensitive peptide is cleaved upon UV-irradiation and exchanged with the peptide of interest as analyzed. Only peptide candidates that can effectively bind and stabilize the peptide-receptive MHC molecules prevent dissociation of the MHC complexes. To determine the yield of the exchange reaction, an ELISA was performed based on the detection of the light chain (β2m) of stabilized MHC complexes. The assay was performed as generally described in Rodenko et al. (Rodenko et al., 2006).
96 well MAXISorp plates (NUNC) were coated over night with 2 μg/ml streptavidin in PBS at room temperature, washed 4× and blocked for 1 h at 37° C. in 2% BSA containing blocking buffer. […] Peptide-MHC monomers of the UV-exchange reaction were diluted 100-fold in blocking buffer. Samples were incubated for 1 h at 37° C., washed four times, incubated with 2 μg/ml HRP conjugated anti-β2m for 1 h at 37° C., washed again and detected with TMB solution that is stopped with […]. Absorption was measured at 450 nm.
In general terms: An ELISA detects its analyte on a solid surface through an enzyme-linked reagent.
For the molecule B1, the peptide exchange yield was at least 75%.

In the case of B2, the peptide exchange yield was at least 75%.

The molecule B3 returned a peptide exchange yield of 50 to 75%.

B4 came in with a peptide exchange yield of at least 75%.

For B5, the peptide exchange yield lay in the range of 50 to 75%.

B6: the peptide exchange yield was at least 75%.

B7 displayed a peptide exchange yield of at least 75%.

For the molecule B8, the peptide exchange yield was at least 75%.

A further assay deals with T2, HLA-A*24:02 (human).
T2 construct: Peptide-receptive MHC class I monomer in the UV-ligand exchange assay
Kind of assay: allele assigned to HLA ligand eluted from tissue (IP, LC-MS).
Take B9: the binding result is on record as “binds”.

Regarding B10, the binding result was “binds”.

With B11, the binding result is “binds”.

Turning to B12, the binding result was “binds”.

For B13, the binding result is “binds”.

On to B14, for which the binding result is given as “binds”.

Take B15: the binding result is given as “binds”.

As for B16, the binding result is “binds”.

For the molecule B17, the binding result was “binds”.

Regarding B18, the binding result was “binds”.

For the molecule B19, the binding result is “binds”.

Consider B20, for which the binding result is on record as “binds”.

In the case of B21, the binding result is reported as “binds”.

As to B22, the binding result is “binds”.

On to B23, for which the binding result is given as “binds”.

In the case of B24, the binding result is “binds”.

Consider B25, for which the binding result was “binds”.

As for B26, the binding result is “binds”.

With B27, the binding result is given as “binds”.

Values taken from patent US20240358755A1 (IMMATICS BIOTECHNOLOGIES, published 2024).
